Biological target: CpuTA1, fold type IV transaminase from Curtobacterium pusillum (Curtobacterium pusillum)
Assay: crystal structure; CpuTA1 12 mg/mL with 5 mM PLP, co-crystallised with 10 mM 3-amino benzoic acid, 2.4 M sodium malonate pH 7.0, micro-seeding, 289 K; two chains in the asymmetric unit; interface analysed with PDBePISA

stoichiometry N: 2
Substance: CpuTA1, fold type IV transaminase from Curtobacterium pusillum (enzyme)

Source: PMC5131300, “Discovery and structural characterisation of new fold type IV-transaminases exemplify the diversity of this enzyme fold” (Scientific Reports, 2016)
